These results are taken from patent US20210032365A1 (Chugai, published 2021).

Residue numbers refer to the chain shown, from its start.

First the molecules themselves.
T1: human C1s (human, UniProt P09871 16-688)
T1 construct: also called hC1s; serum-derived human C1s (CompTech)
T1 sequence: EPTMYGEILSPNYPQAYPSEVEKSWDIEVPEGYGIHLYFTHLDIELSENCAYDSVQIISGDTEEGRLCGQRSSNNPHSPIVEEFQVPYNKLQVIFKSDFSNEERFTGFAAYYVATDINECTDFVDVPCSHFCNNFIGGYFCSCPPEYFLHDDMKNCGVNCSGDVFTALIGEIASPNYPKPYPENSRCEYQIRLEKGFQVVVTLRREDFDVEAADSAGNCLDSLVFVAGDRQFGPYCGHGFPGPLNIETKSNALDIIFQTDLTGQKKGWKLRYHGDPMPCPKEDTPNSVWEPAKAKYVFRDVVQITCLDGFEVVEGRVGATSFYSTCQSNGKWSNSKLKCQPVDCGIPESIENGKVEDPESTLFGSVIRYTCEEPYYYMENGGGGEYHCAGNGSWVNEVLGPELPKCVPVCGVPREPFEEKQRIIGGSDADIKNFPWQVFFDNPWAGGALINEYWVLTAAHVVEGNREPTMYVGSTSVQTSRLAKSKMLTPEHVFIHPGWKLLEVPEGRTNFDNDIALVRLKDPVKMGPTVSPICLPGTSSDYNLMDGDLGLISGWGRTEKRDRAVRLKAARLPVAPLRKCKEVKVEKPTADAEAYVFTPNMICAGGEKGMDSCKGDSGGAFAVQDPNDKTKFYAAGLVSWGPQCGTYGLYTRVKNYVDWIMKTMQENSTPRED

B1: C1_IPN92H0038-SG4GK/IPN009VK3-SK1 (antibody, human IgG4 S228P, kappa, name in Kabat numbering, V domains shown)
VH: EVMLVESGGGLVKPGGSLRLSCAASGFTFSNYAMSWVRQAPGKGLEWVATISSGGSHTYYLDSVKHRFTISRDNSKDTLYLQMNSLRAEDTALYYCARLFTGHAMDYWGQGTLVTVSS
VL: QIVLTQSPATLSLSPGERATLSCTASSSVSSSYLHWYQQKPGKAPKLWIYSTSNLASGVPSRFSGSGSGTDYTLTISSLQPEDFATYYCHQYYRLPPITFGQGTKLEIKR
notes: also called IPN92H0038/IPN009VK3
B2: C1_IPN92H0038-SG4GK/IPN93L0024-SK1 (antibody, human IgG4 S228P, kappa, name in Kabat numbering)
heavy: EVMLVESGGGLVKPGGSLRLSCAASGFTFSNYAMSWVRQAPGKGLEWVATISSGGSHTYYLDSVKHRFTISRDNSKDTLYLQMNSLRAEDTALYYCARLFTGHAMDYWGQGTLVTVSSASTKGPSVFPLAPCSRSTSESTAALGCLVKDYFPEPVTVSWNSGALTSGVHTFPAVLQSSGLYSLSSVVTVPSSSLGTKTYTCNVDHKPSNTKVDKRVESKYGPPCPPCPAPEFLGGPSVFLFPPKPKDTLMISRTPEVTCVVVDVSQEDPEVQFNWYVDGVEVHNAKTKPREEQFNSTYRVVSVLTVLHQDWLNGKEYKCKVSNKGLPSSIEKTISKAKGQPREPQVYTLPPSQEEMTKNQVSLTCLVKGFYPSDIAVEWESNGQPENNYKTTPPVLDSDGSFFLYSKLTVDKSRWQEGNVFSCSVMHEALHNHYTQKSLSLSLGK
light: QIVLTQSPATLSLSPGERATLSCTASSSVSSSYLHWYQQKPGKAPKLWIYSTSNLASGVPSRFSGSGSGTDYTLTISSLQPEDFATYYCHQYYRLHPITFGQGTKLEIKRTVAAPSVFIFPPSDEQLKSGTASVVCLLNNFYPREAKVQWKVDNALQSGNSQESVTEQDSKDSTYSLSSTLTLSKADYEKHKVYACEVTHQGLSSPVTKSFNRGEC
notes: also called IPN92H0038/IPN93L0024
B3: C1_IPN92H0048-SG4GK/IPN93L0024-SK1 (antibody, human IgG4 S228P, kappa, name in Kabat numbering, V domains shown)
VH: B1 VH with F27H, H66G
VL: B1 VL with P96H
notes: also called IPN92H0048/IPN93L0024
B4: C1_IPN92H0038-SG4GK/IPN93L0031-SK1 (antibody, human IgG4 S228P, kappa, name in Kabat numbering, V domains shown)
VH: B1 VH
VL: B1 VL with Y93H, L95H, P96H
notes: also called IPN92H0038/IPN93L0031
B5: C1_IPN92H0038-SG4GK/IPN93L0023-SK1 (antibody, human IgG4 S228P, kappa, name in Kabat numbering, V domains shown)
VH: B1 VH
VL: B1 VL with L95H
notes: also called IPN92H0038/IPN93L0023
B6: C1_IPN92H0038-SG4GK/IPN93L0028-SK1 (antibody, human IgG4 S228P, kappa, name in Kabat numbering, V domains shown)
VH: B1 VH
VL: B1 VL with Y93H, L95H
notes: also called IPN92H0038/IPN93L0028
B7: C1_IPN92H0038-SG4GK/IPN93L0021-SK1 (antibody, human IgG4 S228P, kappa, name in Kabat numbering, V domains shown)
VH: B1 VH
VL: B1 VL with Y93H
notes: also called IPN92H0038/IPN93L0021
B8: C1_IPN92H0038-SG4GK/IPN93L0029-SK1 (antibody, human IgG4 S228P, kappa, name in Kabat numbering, V domains shown)
VH: B1 VH
VL: B1 VL with Y93H, P96H
notes: also called IPN92H0038/IPN93L0029
B9: C1_IPN92H0038-SG4GK/IPN93L0030-SK1 (antibody, human IgG4 S228P, kappa, name in Kabat numbering, V domains shown)
VH: B1 VH
VL: B1 VL with L95H, P96H
notes: also called IPN92H0038/IPN93L0030

The target in one assay is T1, human C1s. The assay is described as follows: SPR, Ab captured; pH 5.8, 3 uM Ca. As for the experimental part:
(§1) All variants were transiently expressed and purified by the method described above. The binding affinity of each histidine-substituted variant at pH 7.4 and pH 5.8 was determined at 37 degrees C. using Biacore T200 instrument (GE Healthcare). Recombinant Protein A/G (Pierce) was immobilized onto all flow cells of a CM4 sensor chip using an amine coupling kit (GE Healthcare). Antibodies and analytes were prepared in 7(+) buffer (20 mM ACES, 150 mM NaCl, 1.2 mM CaCl2, 0.05% Tween 20, 0.005% NaN3, pH 7.4), 5(+) buffer (20 mM ACES, 150 mM NaCl, 1.2 mM CaCl2, 0.05% Tween 20, 0.005% NaN3, pH 5.8), or 5(−) buffer (20 mM ACES, 150 mM NaCl, 3 micro M CaCl2, 0.05% Tween 20, 0.005% NaN3, pH 5.8). Each antibody was captured onto the sensor surface by protein A/G. Antibody capture levels were aimed at 200 resonance unit (RU). Serum-derived human C1s (CompTech) or recombinant C1s prepared in EXAMPLE 1 was injected at 50 nM, followed by dissociation. The sensor surface was regenerated in each cycle with 10 mM Glycine-HCl, pH 1.5. […] The ratio of KD 5.8+ to KD 7.4+(“KD 5+/7+”) and that of KD 5.8− to KD 7.4+(“KD 5−/7+”) were calculated. When the KD 5+/7+ or KD 5−/7+ of a variant is larger than that of the parent antibody IPN009VH2-SG4GK/IPN009VK3-SK1, that variant is considered to be “pH”- or “pH and Ca”-dependent, respectively. When binding response in 5(+) buffer and/or in 5(−) buffer of a variant is much lower than that of IPN09VH2/IPN009VK3, that variant is also considered as “pH”- and/or “pH and Ca”-dependent. Therefore, such mutations are effective to generate “pH”- and/or “pH and Ca”-dependent antibody. To further enhance “pH” and/or “pH and Ca” dependency, a combination of histidine mutations was conducted. Antibodies with combinations of histidine mutations were evaluated using Biacore by the method described above.
What is called Kd is the constant that tells how readily two partners part at equilibrium. By koff is commonly meant a measure of how fast the partners let go of each other. The kon is the rate constant with which the complex forms. In the case of B1, the Kd was found to be 8.33 nM, the koff amounted to 0.00538 s⁻¹ and the kon was 646000 M⁻¹ s⁻¹.
With B2, the equilibrium dissociation constant (Kd) came out at 5.47 nM.
Regarding B3, the equilibrium dissociation constant (Kd) was determined as 3.36 nM.
Regarding B4, the Kd is 3.9 nM, the dissociation rate constant (koff) amounted to 0.00476 s⁻¹ and the on-rate constant (kon) came out at 1.22e+06 M⁻¹ s⁻¹.
Take B5: the Kd was found to be 12.1 nM.
Consider B6, for which the Kd turned out to be 27.3 nM, the koff was 0.0174 s⁻¹ and the kon was found to be 637000 M⁻¹ s⁻¹.
As to B7, the Kd was determined as 10.2 nM.
With B8, the Kd was found to be 6.62 nM, the dissociation rate constant (koff) was 0.00522 s⁻¹ and the kon was 789000 M⁻¹ s⁻¹.
For B9, in that order: 599 nM, 0.00538 s⁻¹ and 8980 M⁻¹ s⁻¹.

The target of another assay is T1, human C1s. The assay is described as follows: SPR, Ab captured; pH 7.4, 1.2 mM Ca. As for the experimental part: as §1
Background: In SPR one partner is held on a chip, and binding of the other changes the refractive index at the surface.
Turning to B1, the Kd was 0.679 nM, the off-rate constant (koff) was determined as 0.000282 s⁻¹ and the kon worked out at 415000 M⁻¹ s⁻¹.
With B2, the Kd is 1.57 nM, the off-rate constant (koff) was found to be 0.000596 s⁻¹ and the on-rate (kon) was 380000 M⁻¹ s⁻¹.
B3: the equilibrium dissociation constant (Kd) worked out at 3.14 nM, the koff is 0.00082 s⁻¹ and the association rate constant (kon) amounted to 261000 M⁻¹ s⁻¹.
As to B4, the Kd is 5.22 nM, the off-rate constant (koff) was 0.0396 s⁻¹ and the on-rate (kon) worked out at 7.59e+06 M⁻¹ s⁻¹.
Regarding B5, the dissociation constant (Kd) was 1.91 nM, the koff came to 0.000808 s⁻¹ and the association rate constant (kon) turned out to be 422000 M⁻¹ s⁻¹.
In the same order, the values of B6 are 2.36 nM, 0.00125 s⁻¹ and 528000 M⁻¹ s⁻¹.
In the case of B7, the Kd is 0.958 nM, the dissociation rate constant (koff) is 0.000477 s⁻¹ and the kon was 498000 M⁻¹ s⁻¹.
For B8, in that order: 7.15 nM, 0.003 s⁻¹ and 419000 M⁻¹ s⁻¹.
In the same order, the values of B9 are 19.9 nM, 0.0111 s⁻¹ and 558000 M⁻¹ s⁻¹.

The target of the next assay is T1, human C1s. The assay is described as follows: SPR, Ab captured; pH 5.8, 1.2 mM Ca. The procedure:
as §1
Consider B1, for which the Kd was found to be 0.668 nM, the koff came to 0.000463 s⁻¹ and the association rate constant (kon) turned out to be 693000 M⁻¹ s⁻¹.
As for B2, the Kd worked out at 8.19 nM, the koff stood at 0.00418 s⁻¹ and the on-rate constant (kon) is 511000 M⁻¹ s⁻¹.
For the molecule B3, the dissociation constant Kd worked out at 12.1 nM, the koff is 0.00637 s⁻¹ and the kon is 528000 M⁻¹ s⁻¹.
For the molecule B4, the equilibrium dissociation constant (Kd) is 1.24 nM, the off-rate constant (koff) worked out at 0.00146 s⁻¹ and the association rate constant (kon) amounted to 1.18e+06 M⁻¹ s⁻¹.
For B5, in that order: 5.33 nM, 0.00279 s⁻¹ and 524000 M⁻¹ s⁻¹.
In the same order, the values of B6 are 17.7 nM, 0.00789 s⁻¹ and 445000 M⁻¹ s⁻¹.
Take B7: the Kd turned out to be 3.53 nM, the koff is 0.00224 s⁻¹ and the kon was 634000 M⁻¹ s⁻¹.
In the case of B8, the dissociation constant (Kd) came to 24.2 nM, the koff stood at 0.0131 s⁻¹ and the kon was determined as 539000 M⁻¹ s⁻¹.
On to B9, for which the equilibrium dissociation constant (Kd) stood at 70.3 nM, the koff amounted to 0.017 s⁻¹ and the kon worked out at 241000 M⁻¹ s⁻¹.

The target in a further assay is T1, human C1s. The assay is described as follows: SPR; KD pH 5.8 3 uM Ca / KD pH 7.4 1.2 mM Ca. As for the experimental part:
as §1
With B1, the “KD 5(-)/7(+)” value worked out at 12.3.
On the same count and under the same terms, the figure for B2 is 3.5; for B3 it is 1.1; for B4 it is 0.7.
B5: the “KD 5(-)/7(+)” value was found to be 6.3.
Same read-out and setting: the figure for B6 is 11.6; for B7 it is 10.6; for B8 it is 0.9.
B9: the “KD 5(-)/7(+)” value worked out at 30.1.

A further assay addresses T1, human C1s. The assay is described as follows: SPR; KD pH 5.8 1.2 mM Ca / KD pH 7.4 1.2 mM Ca. As for the experimental part:
as §1
As to B1, the “KD 5(+)/7(+)” value worked out at 1.
In the case of B2, the “KD 5(+)/7(+)” value turned out to be 5.2.
On the same count and under the same terms, with B3 the figure was 3.9; with B4, 0.2; with B5, 2.8.
Same read-out and setting: with B6 the figure was 7.5; with B7, 3.7; with B8, 3.4.
Same read-out and setting: the figure for B9 is 3.5.
